“And” between values parts separate entries of the source, which are not always exact repeats. Identical values can stand only once.
Settings: Homo sapiens, DSC, reversible: yes, whole UniProt chain shown; for Tm / heat capacity change of unfolding / unfolding enthalpy (calorimetric) / unfolding enthalpy (van 't Hoff): Thermal; for denaturant m value / denaturant midpoint (higher = more stable) / unfolding free energy: 25 °C, GdnHCl

B1: Lysozyme C wild type, P61626 (protein)
chain: MKALIVLGLVLLSVTVQGKVFERCELARTLKRLGMDGYRGISLANWMCLAKWESGYNTRATNYNAGDRSTDYGIFQINSRYWCNDGKTPGAVNACHLSCSALLQDNIADAVACAKRVVRDPQGIRAWVAWRNRCQNRDVRQYVQGCGV
Tm (pH 2.63, glycine-HCl 50 mM): 55.6 °C
heat capacity change of unfolding (pH 2.63, glycine-HCl 50 mM): 1.94 kcal/mol/K
unfolding enthalpy (calorimetric) (pH 2.63, glycine-HCl 50 mM): 379 kJ/mol
unfolding enthalpy (van 't Hoff) (pH 2.63, glycine-HCl 50 mM): 403 kJ/mol
Tm (pH 2.64, glycine-HCl 50 mM): 56.4 °C
heat capacity change of unfolding (pH 2.64, glycine-HCl 50 mM): 1.63 kcal/mol/K
unfolding enthalpy (calorimetric) (pH 2.64, glycine-HCl 50 mM): 398 kJ/mol
unfolding enthalpy (van 't Hoff) (pH 2.64, glycine-HCl 50 mM): 400 kJ/mol
Tm (pH 2.68, glycine-HCl 50 mM): 56.8 °C
heat capacity change of unfolding (pH 2.68, glycine-HCl 50 mM): 1.94 kcal/mol/K
unfolding enthalpy (calorimetric) (pH 2.68, glycine-HCl 50 mM): 385 kJ/mol
unfolding enthalpy (van 't Hoff) (pH 2.68, glycine-HCl 50 mM): 403 kJ/mol
Tm (pH 2.75, glycine-HCl 50 mM): 58.2 °C
heat capacity change of unfolding (pH 2.75, glycine-HCl 50 mM): 1.77 kcal/mol/K
unfolding enthalpy (calorimetric) (pH 2.75, glycine-HCl 50 mM): 408 kJ/mol
unfolding enthalpy (van 't Hoff) (pH 2.75, glycine-HCl 50 mM): 414 kJ/mol
Tm (pH 2.78, glycine-HCl 50 mM): 59 °C
heat capacity change of unfolding (pH 2.78, glycine-HCl 50 mM): 1.31 kcal/mol/K
unfolding enthalpy (calorimetric) (pH 2.78, glycine-HCl 50 mM): 410 kJ/mol
unfolding enthalpy (van 't Hoff) (pH 2.78, glycine-HCl 50 mM): 423 kJ/mol
Tm (pH 2.84, glycine-HCl 50 mM): 60.3 °C
heat capacity change of unfolding (pH 2.84, glycine-HCl 50 mM): 1.67 kcal/mol/K
unfolding enthalpy (calorimetric) (pH 2.84, glycine-HCl 50 mM): 412 kJ/mol
unfolding enthalpy (van 't Hoff) (pH 2.84, glycine-HCl 50 mM): 431 kJ/mol
Tm (pH 2.87, glycine-HCl 50 mM): 60.5 °C
heat capacity change of unfolding (pH 2.87, glycine-HCl 50 mM): 1.7 kcal/mol/K
unfolding enthalpy (calorimetric) (pH 2.87, glycine-HCl 50 mM): 414 kJ/mol
unfolding enthalpy (van 't Hoff) (pH 2.87, glycine-HCl 50 mM): 414 kJ/mol
Tm (pH 2.93, glycine-HCl 50 mM): 62.5 °C
heat capacity change of unfolding (pH 2.93, glycine-HCl 50 mM): 1.46 kcal/mol/K
unfolding enthalpy (calorimetric) (pH 2.93, glycine-HCl 50 mM): 427 kJ/mol
unfolding enthalpy (van 't Hoff) (pH 2.93, glycine-HCl 50 mM): 427 kJ/mol
denaturant m value (pH 3, glycine-HCl 50 mM): 3.23 kcal/mol/M and 3.01 kcal/mol/M
denaturant midpoint (higher = more stable) (pH 3, glycine-HCl 50 mM): 2.9 M and 2.1 M
unfolding free energy (pH 3, glycine-HCl 50 mM): 39.7 kJ/mol and 25.9 kJ/mol
denaturant m value (pH 4, glycine-HCl 50 mM): 3.37 kcal/mol/M and 2.96 kcal/mol/M
denaturant midpoint (higher = more stable) (pH 4, glycine-HCl 50 mM): 3.8 M and 2.8 M
unfolding free energy (pH 4, glycine-HCl 50 mM): 53.8 kJ/mol and 34.5 kJ/mol
denaturant m value (pH 7, Sodium phosphate 50 mM): 3.01 kcal/mol/M
denaturant midpoint (higher = more stable) (pH 7, Sodium phosphate 50 mM): 4 M
unfolding free energy (pH 7, Sodium phosphate 50 mM): 50.4 kJ/mol

From FireProtDB (doi:10.1093/protein/13.4.299)
